# Reference: the DeepSol protein solubility set
# Test: soluble on expression in E. coli; label from the status in PepcDB or PDB records
row,Sequence,soluble on expression in E. coli
1,MPCVQAQYGSSPQGASPASQSYSYHSSGEYSSDFLTPEFVKFSMDLTNTEITATTSLPSFSTFMDNYSTGYDVKPPCLYQMPLSGQQSSIKVEDIQMHNYQQHSHLPPQSEEMMPHSGSVYYKPSSPPTPTTPGFQVQHSPMWDDPGSLHNFHQNYVATTHMIEQRKTPVSRLSLFSFKQSPPGTPVSSCQMRFDGPLHVPMNPEPAGSHHVVDGQTFAVPNPIRKPASMGFPGLQIGHASQLLDTQVPSPPSRGSPSNEGLCAVCGDNAACQHYGVRTCEGCKGFFKRTVQKNAKYVCLANKNCPVDKRRRNRCQYCRFQKCLAVGMVKEVVRTDSLKGRRGRLPSKPKSPQEPSPPSPPVSLISALVRAHVDSNPAMTSLDYSRFQANPDYQMSGDDTQHIQQFYDLLTGSMEIIRGWAEKIPGFADLPKADQDLLFESAFLELFVLRLAYRSNPVEGKLIFCNGVVLHRLQCVRGFGEWIDSIVEFSSNLQNMNIDISAFSCIAALAMVTERHGLKEPKRVEELQNKIVNCLKDHVTFNNGGLNRPNYLSKLLGKLPELRTLCTQGLQRIFYLKLEDLVPPPAIIDKLFLDTLPF,soluble
2,MCQATNGPSRVVTKKHRKFFERHLQLLPSSHQGHDVNRMAIIFYSISGLSIFDVNVSAKYGDHLGWMRKHYIKTVLDDTENTVISGFVGSLVMNIPHATTINLPNTLFALLSMIMLRDYEYFETILDKRSLARFVSKCQRPDRGSFVSCLDYKTNCGSSVDSDDLRFCYIAVAILYICGCRSKEDFDEYIDTEKLLGYIMSQQCYNGAFGAHNEPHSGYTSCALSTLALLSSLEKLSDKFKEDTITWLLHRQVSSHGCMKFESELNASYDQSDDGGFQGRENKFADTCYAFWCLNSLHLLTKDWKMLCQTELVTNYLLDRTQKTLTGGFSKNDEEDADLYHSCLGSAALALIEGKFNGELCIPQEIFNDFSKRCCF,soluble
3,MTQFNGKKIQEKIVSYCIDEVELDLITASDIAFHMTDWLNNLEDLVAFYKTPDEYSPEQLNNILMGFLYHVPNHTIAAAKLLLDVQVTDVFGVGVIADNKDE,not soluble
4,MSLEKLSHGLVTSRNMIRYKSSQLPERVLQFGEGNFLRGFIDWMIQQMNKQNVFNGRVVAIQPTPHGKVVPKLQEQDSLYTVWLRGIADGETVDHHEVITSISRGLNPYTNWQDVLEVAASPDISVVFSNTTEAGLTYLEEGYDKEKAPLSFPGKLAACLWHRYETLGWGEGSGLVIIPCELVEQNGKVLKELVCRYAKAWNFPQEFFTWLERENEFCHTLVDRIVPGFPSDTADECFERLGYEDILLTVAEPYHLFIIEGSERVRKLLPFNEAGLHVRWNHLEKHRNMKVRVLNGTHTFMFALSYLSGVDTVGEAMADEQLCSFIRKGLFEEIIPCVDAPEQEVTAFAETVLERFENPFLQHRLTDIGLNAVNKFRTRLMPTFNDYVAQTGEAPTYLLFSLAALINYYRGVEEDGPFLIGRRREDSYLIRDDLEVIEAFKVGWQQVNTGKLSLAQLCEDLLSKRELWGVDLSMERKVVDKVAESLQIIVEKGMRQAISGVLNQIGGNNHVHKEGHHHHHH,soluble
5,AAPSFDCGKPQVEPKKCPGRVVGGCVAHPHSWPWQVSLRTRFGMHFCGGTLISPEWVLTAAHCLEKSPRPSSYKVILGAHQEVNLEPHVQEIEVSRLFLEPTRKDIALLKLSSPAVITDKVIPACLPSPNYVVADRTECFITGWGETQGTFGAGLLKEAQLPVIENKVCNRYEFLNGRVQSTELCAGHLAGGTDSCQGDSGGPLVCFEKDKYILQGVTSWGLGCARPNKPGVYVRVSRFVTWIEGVMRNN,soluble
6,MGSDKIHHHHHHMSTPSPALFFNTVNAYQRSAAIKAAVELNVFTAISQGIESSQSLAQKCQTSERGMRMLCDYLVIIGFMTKQAEGYRLTSDSAMFLDRQSKFYVGDAIEFLLSPMITNGFNDLTAAVLKGGTAISSEGTLSPEHPVWVQFAKAMSPMMANPAQLIAQLVNENKIEPLKVLDISASHGLFGIAVAQHNPNAEIFGVDWASVLEVAKENARIQGVASRYHTIAGSAFEVDYGNDYDLVLLPNFLHHFDVATCEQLLRKIKTALAVEGKVIVFDFIPNSDRITPPDAAAFSLVMLATTPNGDAYTFAEYESMFSNAGFSHSQLHSLPTTQQQVIVAYK,not soluble
7,MKNIAAQMVNFDREQMRRIANIDNQDMTISVWVFPDTDISDVSRELIAAIKQGYLTVKAAGVWAGGIETPSVETPSEGSKFFGFDMDNEFISGFDVGAWGVLL,soluble
8,MGSSHHHHHHNFYDSDPHISELTPKSFDKAIHNTNYTSLVEFYAPWCGHCKKLSSTFRKAAKRLDGVVQVAAVNCDLNKNKALCAKYDVNGFPTLMVFRPPKIDLSKPIDNAKKSFSAHANEVYSGARTLAPIVDFSLSRIRSYVKKFVRIDTLGSLLRKSPKLSVVLFSKQDKISPVYKSIALDWLGKFDFYSISNKKLKQLTDMNPTYEKTPEIFKYLQKVIPEQRQSDKSKLVVFDADKDKFWEYEGNSINKNDISKFLRDTFSITPNEGPFSRRSEYIAYLKTGKKPIKKNHSS,soluble
9,MKFYNREKELNYLKTYCQLDPNSILFVYGPKSSGKSTVMRRVIKELEDSNIVFFYYNLRKYATYSKEEFLRVFFEKSEKKYLLNKLELNLGVFKFGVEENFDFNNLKLNDVFAKINESINAVVEDGKKPVLIIDELQKLKNIYFNGGKSLLNELFNLFVSLTKMEHLCHVICLTSDTLFIEEIYQSSTLENTSKYYLIDWLRKGTIRNILKEEGFSEEEINYCLDYLSLPYEIVDLIENKKLGLSVEETIRQWINIEKDKIKYLIDTTDLDEEELYKVLSKFKDKIKISYEKEVKKEEMKYFKFLIKNEILFYDVINGIIKPTSVKKWYAIREILK,not soluble
10,MKVVAFNGSPRKEGNTASLIKHVLAELDKEGIETEIVQIGGKSVHGCTACSKCFENRDRRCVIDNDIVNECIEKMLEADGIILASPTYFADLTPELKALIDRAGFVAKANSEMFRYKVGAAVVAVRRAGSIHVFDSINHFFTISQMIIPGSSYWNMGIGRAEGDVEKDDEGIRTMQILGQNMAWLLKKLNELEHHHHHH,not soluble
11,MSLRFEGIYTPAVTPHTPDGDIDWAVFSEVLESLIEANVHGIIIGGSTGEYYAQTAEERLKLAAHAKDVMGNRVQLIIGTGAIRTEDAVLFAKDAKALKADAILVTTPPYALPTDQENAIHALTIDRAANMPIMLYNYPGRMGVQMNEDYLARVGKSKNVIAIKESSGEMGRVHLLAREFPHIALSCGWDDQALEFFAWGARSWVCAGSNFLPREHVALYEACVIEKNFDKGRQIMSAMMPLMHALDGGKFVQCIKFGCELNGLKVGDVRAPLRPLNAEDKRSLQTVIANVKEGHHHHHH,not soluble
12,AKIDNAVLPEGSLVLVTGANGFVASHVVEQLLEHGYKVRGTARSASKLANLQKRWDAKYPGRFETAVVEDMLKQGAYDEVIKGAAGVAHIASVVSFSNKYDEVVTPAIGGTLNALRAAAATPSVKRFVLTSSTVSALIPKPNVEGIYLDEKSWNLESIDKAKTLPESDPQKSLWVYAASKTEAELAAWKFMDENKPHFTLNAVLPNYTIGTIFDPETQSGSTSGWMMSLFNGEVSPALALMPPQYYVSAVDIGLLHLGCLVLPQIERRRVYGTAGTFDWNTVLATFRKLYPSKTFPADFPDQGQDLSKFDTAPSLEILKSLGRPGWRSIEESIKDLVGSETA,soluble
13,MYSLIRHGRSLVELQKWRHLRVLVQKASPLSNSFSSASAARLSPRVGRKGKSFTVSYLVDSLGLPKKLAESVSRKVSFEDKDNPDSVLNLLRSHGFTDSQISTIVTDYPQLLVADAEKSLAPKLQFLQSRGASSSELTEIVSTVPKILGKRGHKTISVFYDFIKETLLDKSSKSEKSCQPFPQGNLENKIRNLSVLRELGMPHKLLFPLLISCDVPVFGKEKFEESLKKVVEMGFDPSTSKFVEALCVVQRLSDKNIEDKVNAYKRLGFDVEYVWTVFKRWPNFLTHSEKKILNTIETFLGLGFSRDEFSVLIKRFPQGIGLSAEMVKKKTEFLVKKMNWPLKALVSNPAVLGYSLEKRTVPRGNVVQALISKGLIGSELPSISRVFVCTDQVFLNRYVKRHEDKQLETELMAIYRAS,soluble
